Test results as given in US20030211587A1 (University of Texas, published 2003).

Target: the molecule itself
Experiment: native gel electrophoresis of purified His-tagged keptin (self-association)
Method: Analysis of His-tagged keptin recombinant protein. Crude proteins were extracted from E. Coli transformed with a bacterial expression vector encoding a secreted form of keptin tagged with 10× histidine residues at its N-terminus. The extracts were affinity purified with nickel resins and subjected to SDS-PAGE analysis under denatured conditions. […] The purified protein was also analyzed for its biochemical properties by native gel electrophoresis. Both keptin dimers and monomers were detected in the native gel. Leptin (MW: 14 kDa) was used as a reference for a monomer protein with similar molecular weight to His-Keptin (11.4 kDa).

B1: His-tagged keptin recombinant protein (human mature keptin with N-terminal 10x histidine, from pET-hKeptin in E. coli) (other, UniProt P60985 23-99, looked up)
chain: ATLGGPEEESTIENYASRPEAFNTPFLNIDKLRSAFKADEFLNWHALFESIKRKLPFLNWDAFPKLKGLRSATPDAQ
notes: mature; also called His-keptin; His-Keptin; not shown: N-terminal 10x histidine tag encoded by vector pET-16b
Question: Does B1 bind?
Answer: binds
